Reference: patent publication CN116829596A

What was measured:
[1] = target: 人类血浆激肽释放酶 (human plasma kallikrein) (human) (UniProt P03952); experiment: SPR, 37 C, pH 7.4 or pH 6.0
[2] = target: 人类血浆激肽释放酶 (human plasma kallikrein) (human) (UniProt P03952); experiment: SPR, 37 C, pH 7.4
[3] = target: 人类血浆激肽释放酶 (human plasma kallikrein) (human) (UniProt P03952); experiment: SPR, 37 C, pH 6 against pH 7.4
凝血酶A (thrombin A) = experiment: cell-based or functional assay
丝氨酸穿膜蛋白酶 = experiment: cell-based or functional assay
[4] = target: 人类血浆激肽释放酶 (human plasma kallikrein) (human) (UniProt P03952); experiment: cell-based or functional assay
[5] = target: 胰蛋白酶、人类胰酶 (trypsin, human pancreas) (human) (UniProt P07477); experiment: cell-based or functional assay
[6] = target: 人类血浆激肽释放酶 (human plasma kallikrein) (human) (UniProt P03952); experiment: SPR, 37 C, pH 6.0

UniProt P03952, sequence (P03952 20-390 S143N limits assumed, chain 1 of 2): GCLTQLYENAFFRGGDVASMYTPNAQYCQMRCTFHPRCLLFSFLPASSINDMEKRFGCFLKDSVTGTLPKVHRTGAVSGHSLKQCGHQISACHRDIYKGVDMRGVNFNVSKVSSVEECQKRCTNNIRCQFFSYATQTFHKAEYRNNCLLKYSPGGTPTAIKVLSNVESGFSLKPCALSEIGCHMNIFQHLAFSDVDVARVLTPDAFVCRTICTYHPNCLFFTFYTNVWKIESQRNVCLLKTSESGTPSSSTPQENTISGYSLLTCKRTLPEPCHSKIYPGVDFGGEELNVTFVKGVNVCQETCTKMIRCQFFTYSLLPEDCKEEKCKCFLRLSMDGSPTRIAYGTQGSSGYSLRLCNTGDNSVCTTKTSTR
UniProt P03952, sequence (P03952 391-638 limits assumed, chain 2 of 2): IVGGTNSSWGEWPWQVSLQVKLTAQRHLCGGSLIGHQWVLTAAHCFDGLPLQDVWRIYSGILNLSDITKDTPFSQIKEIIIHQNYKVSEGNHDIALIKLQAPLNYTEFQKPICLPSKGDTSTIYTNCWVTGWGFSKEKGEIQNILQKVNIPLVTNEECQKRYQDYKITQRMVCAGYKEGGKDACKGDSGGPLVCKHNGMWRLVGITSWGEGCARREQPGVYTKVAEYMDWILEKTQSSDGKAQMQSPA

DX-2930 (antibody) was tested, and the fold affinity for plasma kallikrein over prekallikrein [1] was > 1000 倍, the Kd [2] was 18 nM and the fold change of KD between pH 6 and pH 7.4 [3] was > 10 倍. It also gave a 丝氨酸蛋白酶抑制分析，IC50 (凝血酶A (thrombin A)) of over 1 µM, a 丝氨酸蛋白酶抑制分析，IC50 (丝氨酸穿膜蛋白酶) of over 1 µM and an IC90，HMWK功能分析 [4] of 300 nM. For the same substance, the 胰蛋白酶抑制分析，IC50 [5] was 243 to 376 nM and the Kd [6] was 236 nM.
